Laboratory results reported in patent US20110118131A1 (published 2011).
Substitutions are numbered along the chain they refer to. Names and notes keep the numbering of the source. Read-outs that look alike come from different tables or passages of the source.

T1: Ep-CAM (UniProt P16422 24-265, limits assumed)
T1 construct: Amine coupled to a CM5 chip in the Biacore assays
T1 sequence (looked up): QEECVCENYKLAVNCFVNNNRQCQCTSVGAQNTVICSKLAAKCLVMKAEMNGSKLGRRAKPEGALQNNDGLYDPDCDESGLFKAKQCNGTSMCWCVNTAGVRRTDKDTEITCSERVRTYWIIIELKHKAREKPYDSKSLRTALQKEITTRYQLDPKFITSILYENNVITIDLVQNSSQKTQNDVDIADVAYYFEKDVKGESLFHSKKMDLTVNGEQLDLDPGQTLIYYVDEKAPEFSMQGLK

T2: Ep-CAM (UniProt P16422 24-265, limits assumed)
T2 construct: Antigen of the Biacore analysis of ING-1 variants
T2 sequence (looked up): T1 sequence (looked up)

B1: ING-1 light chain E98N (Fab, V domains shown)
VH: QIQLVQSGPELKKPGETVKISCKASGYTFTKYGMNWVKQAPGKGLKWMGWINTYTEEPTYGDDFKGRFAFSLETSASTANLQINNLKSEDTATYFCARFGSAVDYWGQGTSVTVSS
VL: DIVMTQAAFSNPVTLGTSGSISCRSSKSLLHSNGITYLYWYLQKPGQSPQLLIYQMSNLASGVPDRFSSSGSGTDFTLRISRVEAEDVGVYYCAQNLNLPRTFGGGTKLEMKR
notes: Fab, periplasmic extract
B2: ING-1 heavy chain T55F (Fab, V domains shown)
VH: B1 VH with T55F
VL: B1 VL with N98E
B3: ING-1 light chain I35N (Fab, V domains shown)
VH: B1 VH
VL: B1 VL with I35N, N98E
notes: Fab, periplasmic extract
B4: ING-1 light chain H31K (Fab, V domains shown)
VH: B1 VH
VL: B1 VL with H31K, N98E
notes: Fab, periplasmic extract
B5: ING-1 heavy chain T55Y (Fab, V domains shown)
VH: B1 VH with T55Y
VL: B1 VL with N98E
B6: ING-1 heavy chain T59H (Fab, V domains shown)
VH: B1 VH with T59H
VL: B1 VL with N98E
B7: ING-1 heavy chain W50Y (Fab, V domains shown)
VH: B1 VH with W50Y
VL: B1 VL with N98E
B8: ING-1 heavy chain Y32E (Fab, V domains shown)
VH: B1 VH with Y32E
VL: B1 VL with N98E
B9: ING-1 heavy chain T53Q (Fab, V domains shown)
VH: B1 VH with T53Q
VL: B1 VL with N98E
B10: ING-1 heavy chain Y32H (Fab, V domains shown)
VH: B1 VH with Y32H
VL: B1 VL with N98E
B11: ING-1 heavy chain Y54H (Fab, V domains shown)
VH: B1 VH with Y54H
VL: B1 VL with N98E
B12: ING-1 heavy chain Y54E (Fab, V domains shown)
VH: B1 VH with Y54E
VL: B1 VL with N98E
B13: ING-1 heavy chain Y32S (Fab, V domains shown)
VH: B1 VH with Y32S
VL: B1 VL with N98E
B14: ING-1 heavy chain T55Q (Fab, V domains shown)
VH: B1 VH with T55Q
VL: B1 VL with N98E
B15: ING-1 heavy chain Y32Q (Fab, V domains shown)
VH: B1 VH with Y32Q
VL: B1 VL with N98E
B16: ING-1 heavy chain W50Q (Fab, V domains shown)
VH: B1 VH with W50Q
VL: B1 VL with N98E
B17: ING-1 light chain H31N (Fab, V domains shown)
VH: B1 VH
VL: B1 VL with H31N, N98E
notes: Fab, periplasmic extract
B18: ING-1 heavy chain T55D (Fab, V domains shown)
VH: B1 VH with T55D
VL: B1 VL with N98E
B19: ING-1 heavy chain Y32K (Fab, V domains shown)
VH: B1 VH with Y32K
VL: B1 VL with N98E
B20: ING-1 heavy chain Y105E (Fab, V domains shown)
VH: B1 VH with Y105E
VL: B1 VL with N98E
B21: ING-1 heavy chain W50S (Fab, V domains shown)
VH: B1 VH with W50S
VL: B1 VL with N98E
B22: ING-1 heavy chain T55E (Fab, V domains shown)
VH: B1 VH with T55E
VL: B1 VL with N98E
B23: ING-1 light chain H31R (Fab, V domains shown)
VH: B1 VH
VL: B1 VL with H31R, N98E
notes: Fab, periplasmic extract
B24: ING-1 heavy chain Y105K (Fab, V domains shown)
VH: B1 VH with Y105K
VL: B1 VL with N98E
B25: ING-1 heavy chain W50H (Fab, V domains shown)
VH: B1 VH with W50H
VL: B1 VL with N98E
B26: ING-1 heavy chain W50E (Fab, V domains shown)
VH: B1 VH with W50E
VL: B1 VL with N98E
B27: ING-1 heavy chain T53W (Fab, V domains shown)
VH: B1 VH with T53W
VL: B1 VL with N98E
B28: ING-1 heavy chain Y105D (Fab, V domains shown)
VH: B1 VH with Y105D
VL: B1 VL with N98E
B29: ING-1 heavy chain T59Q (Fab, V domains shown)
VH: B1 VH with T59Q
VL: B1 VL with N98E
B30: ING-1 heavy chain Y105S (Fab, V domains shown)
VH: B1 VH with Y105S
VL: B1 VL with N98E
B31: ING-1 heavy chain T53Y (Fab, V domains shown)
VH: B1 VH with T53Y
VL: B1 VL with N98E
B32: ING-1 heavy chain T53R (Fab, V domains shown)
VH: B1 VH with T53R
VL: B1 VL with N98E
B33: ING-1 heavy chain Y54D (Fab, V domains shown)
VH: B1 VH with Y54D
VL: B1 VL with N98E
B34: ING-1 heavy chain W50F (Fab, V domains shown)
VH: B1 VH with W50F
VL: B1 VL with N98E
B35: ING-1 heavy chain T53N (Fab, V domains shown)
VH: B1 VH with T53N
VL: B1 VL with N98E
B36: ING-1 heavy chain T55W (Fab, V domains shown)
VH: B1 VH with T55W
VL: B1 VL with N98E
B37: ING-1 light chain E98S (Fab, V domains shown)
VH: B1 VH
VL: B1 VL with N98S
notes: Fab, periplasmic extract
B38: ING-1 heavy chain W50N (Fab, V domains shown)
VH: B1 VH with W50N
VL: B1 VL with N98E
B39: ING-1 heavy chain T55H (Fab, V domains shown)
VH: B1 VH with T55H
VL: B1 VL with N98E
B40: ING-1 heavy chain W50K (Fab, V domains shown)
VH: B1 VH with W50K
VL: B1 VL with N98E
B41: ING-1 heavy chain W50R (Fab, V domains shown)
VH: B1 VH with W50R
VL: B1 VL with N98E

What was measured:
[1] = molecular target: T1, Ep-CAM; test: Biacore, Fab periplasmic extract
[2] = molecular target: T2, Ep-CAM; test: Biacore, Fab periplasmic extract

| Binder | fold difference in affinity vs original [2] | further results |
| --- | --- | --- |
| B1 |  | binding result [1]: no binding |
| B2 | 0.03 fold |  |
| B3 |  | fold difference in affinity vs parental ING-1 [1]: 0.5 fold |
| B4 |  | fold difference in affinity vs parental ING-1 [1]: 0.05 fold |
| B5 | 0.03 fold |  |
| B6 | 0.4 fold |  |
| B7 | 0.04 fold |  |
| B8 | 0.08 fold |  |
| B9 |  | binding result [2]: no binding |
| B10 | 0.6 fold |  |
| B11 | 1 fold |  |
| B12 | 0.07 fold |  |
| B13 | 0.01 fold |  |
| B14 | 0.03 fold |  |
| B15 | 0.1 fold |  |
| B16 | 0.01 fold |  |
| B17 |  | fold difference in affinity vs parental ING-1 [1]: 0.5 fold |
| B18 | 0.03 fold |  |
| B19 | 0.08 fold |  |
| B20 |  | binding result [2]: no binding |
| B21 | 0.02 fold |  |

| Binder | fold difference in affinity vs original [2] | further results |
| --- | --- | --- |
| B22 |  | binding result [2]: no binding |
| B23 |  | fold difference in affinity vs parental ING-1 [1]: 0.06 fold |
| B24 |  | binding result [2]: no binding |
| B25 | 0.02 fold |  |
| B26 |  | binding result [2]: no binding |
| B27 |  | binding result [2]: no binding |
| B28 |  | binding result [2]: no binding |
| B29 |  | binding result [2]: no binding |
| B30 | 0.09 fold |  |
| B31 |  | binding result [2]: no binding |
| B32 |  | binding result [2]: no binding |
| B33 | 0.05 fold |  |
| B34 | 0.09 fold |  |
| B35 |  | binding result [2]: no binding |
| B36 | 0.1 fold |  |
| B37 |  | binding result [1]: no binding |
| B38 | 0.03 fold |  |
| B39 | 0.05 fold |  |
| B40 | 0.04 fold |  |
| B41 | 0.1 fold |  |
